Data: paper PMC9760430, “A stapled chromogranin A-derived peptide homes in on tumors that express αvβ6 or αvβ8 integrins” (International Journal of Biological Sciences, 2023)
Ends that are not written are not given here.

What was measured:
[1] = molecular target: recombinant human αvβ8 integrin (human) (UniProt P06756); test: direct integrin binding assay (near-infrared fluorescence scan of plates); microtiter plates coated with αvβ6 or αvβ8; peptide-IRDye conjugates incubated 1 h, washed, bound fluorescence read with Odyssey CLx; EC50
[2] = molecular target: recombinant human αvβ6 integrin (human) (UniProt P06756); test: as above
[3] = molecular target: recombinant murine αvβ6 integrin (murine) (UniProt P43406); test: as above
Sequence of recombinant murine αvβ6 integrin (murine) (P43406 whole entry, chain 1 of 2): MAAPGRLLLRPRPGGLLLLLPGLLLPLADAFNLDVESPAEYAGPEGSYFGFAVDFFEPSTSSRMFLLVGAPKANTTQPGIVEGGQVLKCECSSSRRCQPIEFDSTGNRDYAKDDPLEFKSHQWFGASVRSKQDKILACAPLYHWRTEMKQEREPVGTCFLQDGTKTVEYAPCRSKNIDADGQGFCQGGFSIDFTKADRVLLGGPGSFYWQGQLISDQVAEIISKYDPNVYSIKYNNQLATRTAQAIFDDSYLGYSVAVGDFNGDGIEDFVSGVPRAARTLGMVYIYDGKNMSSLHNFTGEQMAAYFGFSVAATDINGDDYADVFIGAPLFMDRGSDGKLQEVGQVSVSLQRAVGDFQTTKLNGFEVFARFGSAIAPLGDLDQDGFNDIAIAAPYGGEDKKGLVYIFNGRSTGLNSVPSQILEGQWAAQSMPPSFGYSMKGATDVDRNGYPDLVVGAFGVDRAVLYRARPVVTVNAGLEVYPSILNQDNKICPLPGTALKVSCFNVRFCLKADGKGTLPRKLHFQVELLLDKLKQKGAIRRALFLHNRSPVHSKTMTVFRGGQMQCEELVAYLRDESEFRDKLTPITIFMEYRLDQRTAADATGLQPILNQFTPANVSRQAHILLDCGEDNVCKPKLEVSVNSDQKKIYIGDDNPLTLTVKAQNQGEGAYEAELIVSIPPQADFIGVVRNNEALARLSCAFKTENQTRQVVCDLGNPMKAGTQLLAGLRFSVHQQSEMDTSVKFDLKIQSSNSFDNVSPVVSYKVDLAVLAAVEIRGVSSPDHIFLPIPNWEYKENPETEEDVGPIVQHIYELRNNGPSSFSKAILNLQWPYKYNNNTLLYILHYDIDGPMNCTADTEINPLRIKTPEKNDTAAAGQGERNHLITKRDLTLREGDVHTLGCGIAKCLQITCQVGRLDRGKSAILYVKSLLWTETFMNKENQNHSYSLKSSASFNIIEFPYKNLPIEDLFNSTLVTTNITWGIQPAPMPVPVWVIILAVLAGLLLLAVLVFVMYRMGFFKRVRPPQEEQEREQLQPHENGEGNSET
Sequence of recombinant murine αvβ6 integrin (murine) (Q9Z0T9 whole entry, chain 2 of 2, further chain): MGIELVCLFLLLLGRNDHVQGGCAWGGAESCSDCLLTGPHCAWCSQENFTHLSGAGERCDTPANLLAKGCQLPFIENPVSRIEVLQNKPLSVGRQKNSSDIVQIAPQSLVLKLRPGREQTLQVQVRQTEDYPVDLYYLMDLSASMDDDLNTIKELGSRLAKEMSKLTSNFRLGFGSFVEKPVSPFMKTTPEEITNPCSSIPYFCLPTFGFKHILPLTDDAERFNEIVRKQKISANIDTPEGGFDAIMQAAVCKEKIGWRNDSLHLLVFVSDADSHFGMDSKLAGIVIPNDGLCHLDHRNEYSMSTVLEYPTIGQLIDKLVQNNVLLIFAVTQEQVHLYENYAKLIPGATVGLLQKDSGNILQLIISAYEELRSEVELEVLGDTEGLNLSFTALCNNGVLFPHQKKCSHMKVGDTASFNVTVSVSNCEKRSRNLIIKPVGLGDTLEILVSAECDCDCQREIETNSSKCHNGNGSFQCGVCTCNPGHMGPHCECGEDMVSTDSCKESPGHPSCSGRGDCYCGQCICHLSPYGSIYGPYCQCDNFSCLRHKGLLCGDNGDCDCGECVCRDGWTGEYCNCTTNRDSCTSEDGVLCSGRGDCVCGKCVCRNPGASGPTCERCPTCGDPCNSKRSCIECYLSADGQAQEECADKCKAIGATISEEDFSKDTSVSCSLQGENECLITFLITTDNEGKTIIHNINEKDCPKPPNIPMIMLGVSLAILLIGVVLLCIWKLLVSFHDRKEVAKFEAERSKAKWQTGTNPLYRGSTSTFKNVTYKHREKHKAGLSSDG

[4] = molecular target: recombinant murine αvβ8 integrin (murine) (UniProt P43406); test: as above
Sequence of recombinant murine αvβ8 integrin (murine) (P43406 whole entry, chain 1 of 2): as the sequence (P43406 whole entry, chain 1 of 2) above
Sequence of recombinant murine αvβ8 integrin (murine) (Q0VBD0 whole entry, chain 2 of 2, further chain): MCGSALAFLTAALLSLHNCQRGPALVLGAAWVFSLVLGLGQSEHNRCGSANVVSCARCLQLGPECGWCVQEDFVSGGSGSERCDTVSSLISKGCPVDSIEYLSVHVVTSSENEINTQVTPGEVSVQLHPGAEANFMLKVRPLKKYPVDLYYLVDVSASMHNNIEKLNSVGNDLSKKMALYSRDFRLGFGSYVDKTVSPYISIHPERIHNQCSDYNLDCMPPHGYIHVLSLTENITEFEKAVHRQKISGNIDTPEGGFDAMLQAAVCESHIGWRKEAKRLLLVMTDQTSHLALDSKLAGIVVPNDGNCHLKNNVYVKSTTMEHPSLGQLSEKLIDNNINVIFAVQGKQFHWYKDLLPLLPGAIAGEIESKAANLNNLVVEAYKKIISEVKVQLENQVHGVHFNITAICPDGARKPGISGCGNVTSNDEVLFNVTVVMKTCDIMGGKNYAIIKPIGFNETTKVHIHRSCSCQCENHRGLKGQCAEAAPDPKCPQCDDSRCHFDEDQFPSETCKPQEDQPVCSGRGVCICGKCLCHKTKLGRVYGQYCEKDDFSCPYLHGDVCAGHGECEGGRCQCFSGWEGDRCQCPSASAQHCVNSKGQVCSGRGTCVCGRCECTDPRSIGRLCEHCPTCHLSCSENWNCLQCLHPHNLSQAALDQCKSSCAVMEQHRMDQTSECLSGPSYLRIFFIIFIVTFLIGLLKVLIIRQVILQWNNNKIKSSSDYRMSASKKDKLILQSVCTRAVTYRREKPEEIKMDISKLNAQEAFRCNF

[5] = molecular target: recombinant human αvβ6 integrin (human) (UniProt P06756); test: ELISA; competitive integrin binding assay: αvβ6-coated plates, isoDGR peptide labeled with peroxidase as probe for the integrin-binding site; Ki

EC50 [1] [nM] | EC50 [2] [nM] | EC50 [3] [nM] | EC50 [4] [nM] | Ki [5] [nM] | Binder
> 100 | > 100 | > 100 | > 100 |  | C(maleimide‑IRDye 800CW)FETLRGEERILSILRHQNLLKELQD-NH2 [2a-IRDye conjugate]
 |  |  |  | > 1000 | C(maleimide‑NOTA)FETLRGEERILSILRHQNLLKELQD-NH2 [2a-NOTA conjugate]
